Binding result and Kd data for four molecules are collected here from PMC3975500 (Cell Research, 2014).

B3: Lsm5 (full length), subunit of the crystallized Lsm1-7 complex (natural protein)
chain: MSLPEILPLEVIDKTINQKVLIVLQSNREFEGTLVGFDDFVNVILEDAVEWLIDPEDESRNEKVMQHHGRMLLSGNNIAILVPGGKKTPTEAL

In data set [1] the target is T1, Lsm7 (full length), subunit of the crystallized Lsm1-7 complex (S. cerevisiae, UniProt P53905 1-115).
T1 sequence: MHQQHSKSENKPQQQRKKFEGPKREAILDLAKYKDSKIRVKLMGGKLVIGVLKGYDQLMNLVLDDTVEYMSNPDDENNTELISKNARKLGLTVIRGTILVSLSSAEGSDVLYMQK
As to the kind of experiment: crystal structure.

Data set [2] addresses B3. As to the kind of experiment: crystal structure.
A further data set concerns the target T2, Lsm1-7 heptamer (Saccharomyces cerevisiae, UniProt P47017;P38203;P57743;P40070;P40089;Q06406;P53905 …).
T2 sequence 1: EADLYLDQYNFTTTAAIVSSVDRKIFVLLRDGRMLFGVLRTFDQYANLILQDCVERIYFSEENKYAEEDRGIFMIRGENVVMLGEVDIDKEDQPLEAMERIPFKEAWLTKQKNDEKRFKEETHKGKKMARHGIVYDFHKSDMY
T2 sequence 2: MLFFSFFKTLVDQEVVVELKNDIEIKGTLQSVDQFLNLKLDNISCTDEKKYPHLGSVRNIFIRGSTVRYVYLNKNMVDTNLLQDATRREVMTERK
T2 sequence 3: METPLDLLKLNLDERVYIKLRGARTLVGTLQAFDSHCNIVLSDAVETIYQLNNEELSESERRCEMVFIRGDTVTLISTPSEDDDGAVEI
T2 sequence 4: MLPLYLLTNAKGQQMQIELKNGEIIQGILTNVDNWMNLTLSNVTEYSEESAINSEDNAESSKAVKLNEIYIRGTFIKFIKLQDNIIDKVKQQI
T2 sequence 5: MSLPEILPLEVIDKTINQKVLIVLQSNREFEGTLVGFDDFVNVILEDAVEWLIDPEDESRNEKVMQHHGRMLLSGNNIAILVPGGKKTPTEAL
T2 sequence 6: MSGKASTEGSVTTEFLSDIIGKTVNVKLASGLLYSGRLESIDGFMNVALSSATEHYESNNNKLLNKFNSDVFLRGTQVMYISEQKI
T2 sequence 7: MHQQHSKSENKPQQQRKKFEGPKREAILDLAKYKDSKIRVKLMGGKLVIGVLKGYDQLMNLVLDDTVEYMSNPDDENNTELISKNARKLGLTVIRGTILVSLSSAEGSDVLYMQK
As to the kind of experiment: BLI. Background: In BLI a coated tip is dipped into the sample, and binding shifts an interference pattern.

B1: Lsm4 (residues 1-93), subunit of the crystallized Lsm1-7 complex (domain or fragment)
chain: MLPLYLLTNAKGQQMQIELKNGEIIQGILTNVDNWMNLTLSNVTEYSEESAINSEDNAESSKAVKLNEIYIRGTFIKFIKLQDNIIDKVKQQI
In the case of B1, in data set [1], the binding result is “binds”.

B2: Lsm6 (full length), subunit of the crystallized Lsm1-7 complex (natural protein)
chain: MSGKASTEGSVTTEFLSDIIGKTVNVKLASGLLYSGRLESIDGFMNVALSSATEHYESNNNKLLNKFNSDVFLRGTQVMYISEQKI
With B2, the binding result in data set [2] was “binds”. UUUUUUUU (ssRNA) [oligo-U (U8)]: the Kd with Lsm1-7 heptamer is about 2000 nM. Consider B3, for which, in data set [1], the binding result is “binds”.

For orientation: Kd means the concentration at which binding is half-saturated. Low readings indicate higher affinity, high ones lower affinity.
